Columns and labels:
[1] = target: T1, ELP-substrate fusion M(GVGVP)60GDGQVPMSMRGGDDEGQQDDEEGY
T1 chain: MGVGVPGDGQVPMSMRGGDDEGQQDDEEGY

[2] = target: T2, A4 construct M(YPSDGRGQ)40YGDGQVPMSMRGGDEGQQDDEEGY
T2 chain: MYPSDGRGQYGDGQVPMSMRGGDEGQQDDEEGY

[3] = target: T3, MSKGPGWGVG(VPGVG)60GDGQVPMSMRGGDDEGQQDDEE(VPGAGVPGGG)30YG fusion polypeptide
T3 chain: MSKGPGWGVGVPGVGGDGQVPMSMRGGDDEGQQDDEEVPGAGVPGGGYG

B1: Human MMP-1 catalytic domain (recombinant, produced in E. coli, 19.9 kDa) (protein)
chain: FVLTEGNPRWEQTHLTYRIENYTPDLPRADVDHAIEKAFQLWSNVTPLTFTKVSEGQADIMISFVRGDHRDNSPFDGPGGNLAHAFQPGPGIGGDAHFDEDERWTNNFREYNLHRVAAHELGHSLGLSHSTDIGALMYPSYTFSGDVQLAQDDIDGIQAIYGRSQNPVQP
catalytic constant (kcat) from Lineweaver-Burke plot, SDS-PAGE densitometry, 20 ng/mL enzyme, 40 C [1]: 8.0 ± 1.9 s⁻¹
mass spectrometry of the polypeptide before and after incubation with 100 ng/mL MMP-1 for 2 h at 25 C [1]: most of the 1.8 kDa MMP-sensitive peptide is cleaved off the 25.4 kDa ELP
optical density at 350 nm and DLS particle size after 12 h with 100 ng/mL MMP-1 at 40 C [1]: the optical density of the solution shows a dramatic increase as the solution is heated above the CMT to 45 °C
transition temperature of 25 µM A4 before and after incubation with 25 ng/mL MMP-1 at 37 C [2]: a change in transition temperature of A4 construct at 25 µM prior to (solid line) and after (dashed line) incubation with 25 ng/mL of MMP-1 enzyme
optical density versus temperature before and after incubation with MMP-1 [3]: Incubation of these micelles with MMP-1 enzyme is shown to result in drastic changes in optical densities at the micelle-forming transition temperature

Reference: patent publication US20160348147
